Assay results as given in patent US20130143948A1, “MST1 AS A PROGNOSTIC BIOMARKER AND THERAPEUTIC TARGET IN HUMAN CANCER” (CEDARS-SINAI MEDICAL CENTER, priority 2010, published 2013).

B1: MST1: serine-threonine kinase MST1 (mammalian sterile STE20-like kinase 1), enforced Dox-inducible HA-tagged expression in tumor cells (protein, UniProt Q13043 1-487, looked up)
Serine/threonine-protein …: METVQLRNPPRRQLKKLDEDSLTKQPEEVFDVLEKLGEGSYGSVYKAIHKETGQIVAIKQVPVESDLQEIIKEISIMQQCDSPHVVKYYGSYFKNTDLWIVMEYCGAGSVSDIIRLRNKTLTEDEIATILQSTLKGLEYLHFMRKIHRDIKAGNILLNTEGHAKLADFGVAGQLTDTMAKRNTVIGTPFWMAPEVIQEIGYNCVADIWSLGITAIEMAEGKPPYADIHPMRAIFMIPTNPPPTFRKPELWSDNFTDFVKQCLVKSPEQRATATQLLQHPFVRSAKGVSILRDLINEAMDVKLKRQESQQREVDQDDEENSEEDEMDSGTMVRAVGDEMGTVRVASTMTDGANTMIEHDDTLPSQLGTMVINAEDEEEEGTMKRRDETMQPAKPSFLEYFEQKEKENQINSFGKSVPGPLKNSSDWKIPQDGDYEFLKSWTVEDLQKRLLALDPMMEQEIEEIRQKYQSKRQPILDAIEAKKRRQQNF
modifications: HA tag
notes: serine-threonine kinase MST1 (mammalian sterile STE20-like kinase 1), enforced Dox-inducible HA-tagged expression in tumor cells

Columns and labels:
LNCaP/Vector cells = assay: BrdU incorporation cell proliferation assay, LNCaP/Vector; type: cell-based; conditions: Dox 4 μg/ml, 24 hr
Procedure: For in vitro kinase assay, the recombinant, pre-activated MST1 protein kinase was incubated with purified GST-AR DBD/HR fusion protein and 10 μCi ^32P-γ-ATP or 100 μM unlabeled-ATP. The reaction mixture was resolved on SDS-PAGE and autoradiographed. Cell-Death ELISA and BrdU incorporation assays were performed to assess cell death and cell proliferation, respectively, according to the manufacturer's instructions (Roche Molecular Diagnostics).

[1] = tested on: C4-2/HA-MST1 tumor xenografts; assay: Subcutaneous prostate cancer xenograft in athymic nude mice; type: in vivo
Procedure: C4-2/Vector or C4-2/HA-MST1 cells mixed with Matrigel (1-to-1 ratio) were inoculated subcutaneously in athymic nude mice (CD-1 nu/nu; Charles River Laboratories, Wilmington, Mass.). 1×10^6 cells/100 μl were used per injection per site (right and left flanks). Mice were treated with Dox (0.5 mg/ml) in drinking water to induce MST1 expression for 12 weeks. Institutional Animal Care and Use Committee (IACUC) policies and guidelines were strictly applied. Tumor volumes were assessed by caliper according to procedures described previously (20). Mice were sacrificed and evaluated for tumor growth anatomically and tumor tissues extracted from mice were fixed in 10% formaldehyde for the construction of histological sections or “snap” frozen at −80° C. The expression of MST1 was verified in histological sections by immunohistochemistry using anti-HA antibody.

[2] = C4-2/HA-MST1 vs C4-2/Vector, Dox in drinking water, 12 weeks

Row | Molecule | effect on cell growth (LNCaP/Vector cells) | mice that developed tumors ([1]; 12 weeks after subcutaneous inoculation, 10 mice per group) | suppression of tumor growth [1, 2] | suppression of tumorigenic rates [1, 2]
1 | C[C@H]1c2cccc(O)c2C(=O)C2=C(O)[C@]3(O)C(=O)C(C(N)=O)=C(O)[C@@H](N(C)C)[C@@H]3[C@@H](O)[C@@H]21 [Dox, doxycycline] | no effect |  |  | 
2 | B1 |  | 2 out of 10 | 35 fold | 4 fold
